The target of assay [1] is T1, Rab6B^Q72L, GTPase domain (residues 8-176), constitutively active mutant (mouse, UniProt P61294 8-176, Q72L).
T1 construct: Rab6B, mouse, GenBank NM_173781.4, GTPase domain residues 8-176, with Q72L; Used in analytical gel filtration and ITC; The methods tell of tag cleavage (HRV 3C) only for crystallization, so the Trx-His6 tag was probably still on; also called continuously active mutant Rab6B^Q72L; active form of Rab6B; source: E. coli BL21(DE3), purified (Ni2+-NTA, size-exclusion chromatography)
In words: ITC; MicroCal PEAQ-ITC, 25 °C, 50 mM Tris pH 7.5, 100 mM NaCl, 2 mM MgCl2; typically one protein (400 μM) in the syringe into its binding protein (40 μM) in the cell. Particulars: both partners purified.

For assay [2], the target named is T1, Rab6B^Q72L, GTPase domain (residues …). In words: SEC; analytical gel filtration, Superdex 200 Increase 10/300 GL, 50 mM Tris pH 7.5, 100 mM NaCl, 2 mM MgCl2, 1 mM DTT. Particulars: both partners purified. For orientation: Size exclusion chromatography separates by hydrodynamic size, large species first.

T1 sequence (P61294 8-176 Q72L): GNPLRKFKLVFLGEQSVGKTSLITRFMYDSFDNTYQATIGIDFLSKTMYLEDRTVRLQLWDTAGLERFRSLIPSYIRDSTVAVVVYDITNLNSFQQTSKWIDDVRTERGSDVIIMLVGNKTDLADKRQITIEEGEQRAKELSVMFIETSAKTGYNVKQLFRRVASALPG

B1: ELKS1_RBD, Rab-binding domain of ELKS1 (residues 849-922) (domain or fragment, rat, UniProt Q811U3 849-922, looked up)
chain: RKHLEEVLEMKQEALLAAISEKDANIALLELSSSKKKTQEEVAALKREKDRLVQQLKQQTQNRMKLMADNYEDD
notes: As used in analytical gel filtration and ITC; source: E. coli BL21(DE3), purified (Ni2+-NTA, size-exclusion chromatography)
B1: the Kd in assay [1] is about 8 µM.

B2: ELKS1 C-terminal coiled-coil region (residues 761-927) (domain or fragment, rat, UniProt Q811U3 761-927, looked up)
chain: QVKDQNKKVANLKHKEQVEKKKSAQMLEEARRREDSLSDSSQQLQVEELLMAMEKVKQELESMKAKLSSTQQSLAEKETHLTNLRAERRKHLEEVLEMKQEALLAAISEKDANIALLELSSSKKKTQEEVAALKREKDRLVQQLKQQTQNRMKLMADNYEDDHFRSS
notes: ELKS1 (Rab6IP2, CAST, ERC), rat, GenBank AY174115.1, residues 761-927; also called C-terminal fragment of ELKS1; source: E. coli BL21(DE3), purified (Ni2+-NTA, size-exclusion chromatography)
B2: the binding result in assay [2] was “binds”.

For orientation: Kd means the constant that tells how readily two partners part at equilibrium. Lower therefore signals tighter binding.

The values are drawn from paper PMC10267580, “Structural basis of ELKS/Rab6B interaction and its role in vesicle capturing enhanced by liquid-liquid phase separation” (The Journal of Biological Chemistry, 2023).
